Results from patent US20250223319A1.

Target: F HIV-clamp (respiratory syncytial virus)
Experiment: capture ELISA, 101F coat and MPE8 detection; antigen yield estimate, control

Substance: MPE8 (antibody)
- yield by MPE8 binding ELISA: 10 mg/L
